Patent publication US20050249739A1

Target: S protein of GD03T on pseudotyped HIV (SARS-CoV (GD03T isolate))
Experiment: cell-based or functional assay

80R IgG1 (antibody)
S-protein-pseudotyped HIV luciferase infection of ACE2-expressing 293T cells: > 50 µg/mL
